T1: Helicobacter pylori UreE, wild-type (residues 1-170) (Helicobacter pylori, UniProt Q09064 1-170)
T1 sequence (looked up): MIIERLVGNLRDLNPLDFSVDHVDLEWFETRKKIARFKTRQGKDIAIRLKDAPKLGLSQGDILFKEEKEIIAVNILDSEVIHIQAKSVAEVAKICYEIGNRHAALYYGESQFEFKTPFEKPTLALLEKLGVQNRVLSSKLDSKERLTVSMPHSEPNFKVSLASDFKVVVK

B1: Helicobacter pylori UreE(1-158), C-terminal truncation variant (domain or fragment, UniProt Q09064 1-158, looked up)
chain: MIIERLVGNLRDLNPLDFSVDHVDLEWFETRKKIARFKTRQGKDIAIRLKDAPKLGLSQGDILFKEEKEIIAVNILDSEVIHIQAKSVAEVAKICYEIGNRHAALYYGESQFEFKTPFEKPTLALLEKLGVQNRVLSSKLDSKERLTVSMPHSEPNFK
B2: Helicobacter pylori UreE(1-148), C-terminal truncation variant (domain or fragment, UniProt Q09064 1-148, looked up)
chain: MIIERLVGNLRDLNPLDFSVDHVDLEWFETRKKIARFKTRQGKDIAIRLKDAPKLGLSQGDILFKEEKEIIAVNILDSEVIHIQAKSVAEVAKICYEIGNRHAALYYGESQFEFKTPFEKPTLALLEKLGVQNRVLSSKLDSKERLTV
B3: Helicobacter pylori UreG (enzyme)
chain: MVKIGVCGPVGSGKTALIEALTRHMSKDYDMAVITNDIYTKEDAEFMCKNSVMPRERIIGVETGGCPHTAIREDASMNLEAVEEMHGRFPNLELLLIESGGDNLSATFNPELADFTIFVIDVAEGDKIPRKGGPGITRSDLLVINKIDLAPYVGADLKVMERDSKKMRGEKPFIFTNIRAKEGLDDVIAWIKRNALLED
B4: Helicobacter pylori HypA with C-terminal Strep-tag II (HypAstr) (natural protein, UniProt P0A0U4 1-117, looked up)
chain: MHEYSVVSSLIALCEEHAKKNQAHKIERVVVGIGERSAMDKSLFVSAFETFREESLVCKDAILDIVDEKVELECKDCSHVFKPNALDYGVCEKCHSKNVIITQGNEMRLLSLEMLAE

Tests used:
crystal structure = target: the molecule itself; test: crystal structure
Helicobacter pylori UreG = target: B3; test: crystal structure
[1] = target: T1, Helicobacter pylori UreE, wild-type …; test: pull-down

Binder | binding result (crystal structure) | binding result (Helicobacter pylori UreG) | binding result [1]
B1 | binds | binds | 
B2 | binds | binds | 
B3 | binds |  | 
B4 |  |  | binds

Source: doi:10.64898/2025.12.08.692910 (bioRxiv, 2025)
